Measured values taken from patent publication US20160114000A1 (Merck Sharp & Dohme, published 2016).
*1 amine or outer side, *2 acyl side, *3 side chain or, on linkers, in order; H or OH if unused. Where no end group is shown, it is not given here. Side-chain parts run from the residue outwards. [ ]: non-standard residue; d: D form. The star is where a group is joined. γGlu = O=C(O)[C@H](CCC(=O)[*:2])N[*:1]; Palmitoyl = CCCCCCCCCCCCCCCC(=O)*; Ac4c = NC1(C(=O)O)CCC1

B1: Co-agonist Peptide 11 (peptide)
peptide: H[dS]QGTFTSDK([γGlu-γGlu-Palmitoyl])SLYLDERAAQDFVQWLLDT-NH2
modifications: N-terminus assumed
SMILES: CCCCCCCCCCCCCCCC(=O)N[C@@H](CCC(=O)N[C@@H](CCC(=O)NCCCC[C@H](NC(=O)[C@H](CC(=O)O)NC(=O)[C@H](CO)NC(=O)[C@@H](NC(=O)[C@H](Cc1ccccc1)NC(=O)[C@@H](NC(=O)CNC(=O)[C@H](CCC(N)=O)NC(=O)[C@@H](CO)NC(=O)[C@@H](N)Cc1c[nH]cn1)[C@@H](C)O)[C@@H](C)O)C(=O)N[C@@H](CO)C(=O)N[C@@H](CC(C)C)C(=O)N[C@@H](Cc1ccc(O)cc1)C(=O)N[C@@H](CC(C)C)C(=O)N[C@@H](CC(=O)O)C(=O)N[C@@H](CCC(=O)O)C(=O)N[C@@H](CCCNC(=N)N)C(=O)N[C@@H](C)C(=O)N[C@@H](C)C(=O)N[C@@H](CCC(N)=O)C(=O)N[C@@H](CC(=O)O)C(=O)N[C@@H](Cc1ccccc1)C(=O)N[C@H](C(=O)N[C@@H](CCC(N)=O)C(=O)N[C@@H](Cc1c[nH]c2ccccc12)C(=O)N[C@@H](CC(C)C)C(=O)N[C@@H](CC(C)C)C(=O)N[C@@H](CC(=O)O)C(=O)N[C@H](C(N)=O)[C@@H](C)O)C(C)C)C(=O)O)C(=O)O
B2: Co-agonist Peptide 3 (peptide)
peptide: H[dS]QGTFTSDK([γGlu-γGlu-Palmitoyl])SKYLDVRAAQDFVQWLLDT-NH2
modifications: N-terminus assumed
SMILES: CCCCCCCCCCCCCCCC(=O)N[C@@H](CCC(=O)N[C@@H](CCC(=O)NCCCC[C@H](NC(=O)[C@H](CC(=O)O)NC(=O)[C@H](CO)NC(=O)[C@@H](NC(=O)[C@H](Cc1ccccc1)NC(=O)[C@@H](NC(=O)CNC(=O)[C@H](CCC(N)=O)NC(=O)[C@@H](CO)NC(=O)[C@@H](N)Cc1c[nH]cn1)[C@@H](C)O)[C@@H](C)O)C(=O)N[C@@H](CO)C(=O)N[C@@H](CCCCN)C(=O)N[C@@H](Cc1ccc(O)cc1)C(=O)N[C@@H](CC(C)C)C(=O)N[C@@H](CC(=O)O)C(=O)N[C@H](C(=O)N[C@@H](CCCNC(=N)N)C(=O)N[C@@H](C)C(=O)N[C@@H](C)C(=O)N[C@@H](CCC(N)=O)C(=O)N[C@@H](CC(=O)O)C(=O)N[C@@H](Cc1ccccc1)C(=O)N[C@H](C(=O)N[C@@H](CCC(N)=O)C(=O)N[C@@H](Cc1c[nH]c2ccccc12)C(=O)N[C@@H](CC(C)C)C(=O)N[C@@H](CC(C)C)C(=O)N[C@@H](CC(=O)O)C(=O)N[C@H](C(N)=O)[C@@H](C)O)C(C)C)C(C)C)C(=O)O)C(=O)O
B3: Co-agonist Peptide 9 (peptide)
peptide: HXQGTXTSDKSKYLDERAAQDFVQWLLDT
modifications: D-Ser at 2; p-fluorophenylalanine (pFF) at 6; Lys 10 conjugated to γEγE-C16 (palmitoyl); C-terminal amide
B4: Co-agonist Peptide 12 (peptide)
peptide: HXQGTFTSDXSKYLDARAAQDFVQWLLDT
modifications: D-Ser at 2; para-aminomethyl phenylalanine (pAF) at 10 conjugated to γEγE-C16 (palmitoyl); C-terminal amide
B5: Co-agonist Peptide 8 (peptide)
peptide: H[dS]QGTFTSDK([γGlu-γGlu-Palmitoyl])SKYLEARAAQDFVQWLLDT-NH2
modifications: N-terminus assumed
SMILES: CCCCCCCCCCCCCCCC(=O)N[C@@H](CCC(=O)N[C@@H](CCC(=O)NCCCC[C@H](NC(=O)[C@H](CC(=O)O)NC(=O)[C@H](CO)NC(=O)[C@@H](NC(=O)[C@H](Cc1ccccc1)NC(=O)[C@@H](NC(=O)CNC(=O)[C@H](CCC(N)=O)NC(=O)[C@@H](CO)NC(=O)[C@@H](N)Cc1c[nH]cn1)[C@@H](C)O)[C@@H](C)O)C(=O)N[C@@H](CO)C(=O)N[C@@H](CCCCN)C(=O)N[C@@H](Cc1ccc(O)cc1)C(=O)N[C@@H](CC(C)C)C(=O)N[C@@H](CCC(=O)O)C(=O)N[C@@H](C)C(=O)N[C@@H](CCCNC(=N)N)C(=O)N[C@@H](C)C(=O)N[C@@H](C)C(=O)N[C@@H](CCC(N)=O)C(=O)N[C@@H](CC(=O)O)C(=O)N[C@@H](Cc1ccccc1)C(=O)N[C@H](C(=O)N[C@@H](CCC(N)=O)C(=O)N[C@@H](Cc1c[nH]c2ccccc12)C(=O)N[C@@H](CC(C)C)C(=O)N[C@@H](CC(C)C)C(=O)N[C@@H](CC(=O)O)C(=O)N[C@H](C(N)=O)[C@@H](C)O)C(C)C)C(=O)O)C(=O)O
B6: Co-agonist Peptide 10 (peptide)
peptide: HXQGTFTSDKSKYLDERAAQDFVQWLXDT
modifications: D-Ser at 2; Lys 10 conjugated to γEγE-C16 (palmitoyl); methionine sulfone at 27; C-terminal amide
B7: Co-agonist Peptide 13 (peptide)
peptide: H[Ac4c]QGTFTSDK([γGlu-γGlu-Palmitoyl])SKYLDERAAQDFVQWLLDT-NH2
modifications: N-terminus assumed
SMILES: CCCCCCCCCCCCCCCC(=O)N[C@@H](CCC(=O)N[C@@H](CCC(=O)NCCCC[C@H](NC(=O)[C@H](CC(=O)O)NC(=O)[C@H](CO)NC(=O)[C@@H](NC(=O)[C@H](Cc1ccccc1)NC(=O)[C@@H](NC(=O)CNC(=O)[C@H](CCC(N)=O)NC(=O)C1(NC(=O)[C@@H](N)Cc2c[nH]cn2)CCC1)[C@@H](C)O)[C@@H](C)O)C(=O)N[C@@H](CO)C(=O)N[C@@H](CCCCN)C(=O)N[C@@H](Cc1ccc(O)cc1)C(=O)N[C@@H](CC(C)C)C(=O)N[C@@H](CC(=O)O)C(=O)N[C@@H](CCC(=O)O)C(=O)N[C@@H](CCCNC(=N)N)C(=O)N[C@@H](C)C(=O)N[C@@H](C)C(=O)N[C@@H](CCC(N)=O)C(=O)N[C@@H](CC(=O)O)C(=O)N[C@@H](Cc1ccccc1)C(=O)N[C@H](C(=O)N[C@@H](CCC(N)=O)C(=O)N[C@@H](Cc1c[nH]c2ccccc12)C(=O)N[C@@H](CC(C)C)C(=O)N[C@@H](CC(C)C)C(=O)N[C@@H](CC(=O)O)C(=O)N[C@H](C(N)=O)[C@@H](C)O)C(C)C)C(=O)O)C(=O)O

Legend:
[1] = target: human glucagon receptor (human, UniProt P47871 26-477); assay: cell-based or functional assay
[2] = target: human GLP-1 receptor (human, UniProt P43220 24-463); assay: cell-based or functional assay

Sequence of human glucagon receptor (P47871 26-477): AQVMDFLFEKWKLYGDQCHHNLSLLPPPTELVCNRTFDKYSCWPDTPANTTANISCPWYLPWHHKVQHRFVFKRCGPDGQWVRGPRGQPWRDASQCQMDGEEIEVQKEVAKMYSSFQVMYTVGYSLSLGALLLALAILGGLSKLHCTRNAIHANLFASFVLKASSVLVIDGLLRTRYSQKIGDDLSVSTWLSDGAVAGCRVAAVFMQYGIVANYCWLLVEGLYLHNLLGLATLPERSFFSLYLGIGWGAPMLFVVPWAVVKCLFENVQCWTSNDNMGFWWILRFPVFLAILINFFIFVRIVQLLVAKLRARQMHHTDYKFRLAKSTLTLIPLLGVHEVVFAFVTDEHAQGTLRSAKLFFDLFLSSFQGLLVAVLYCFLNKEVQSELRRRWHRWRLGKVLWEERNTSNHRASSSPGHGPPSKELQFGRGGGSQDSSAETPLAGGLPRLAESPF

| Binder | GCGR EC50 (nM) human; cAMP production (HitHunter cAMPXS), 20% human serum [1] [nM] | hGCGR/hGLP1R (hTone): ratio of cAMP EC50 at human GCGR to cAMP EC50 at human GLP1R [1] [ratio] | GLPR1 EC50 (nM) human; cAMP production (HitHunter cAMPXS), 20% human serum [2] [nM] |
| --- | --- | --- | --- |
| B1 | 0.06 | 0.91 | 0.06 |
| B2 | 0.08 | 0.6 | 0.13 |
| B3 | 0.05 | 0.93 | 0.06 |
| B4 | 0.05 | 0.98 | 0.05 |
| B5 | 0.02 | 0.9 | 0.02 |
| B6 | 0.02 | 1.1 | 0.02 |
| B7 | 0.06 | 1.25 | 0.05 |
